Test results reported in patent publication US20230312740A1 (VIRTUOSO BINCO, published 2023).
Numbering of substitutions follows the chain as printed. Blank lines part the entries; values can stand above or below the binder they belong to.

What was measured:
[1] = target: T1, Avi-human CD38 ECD (human, UniProt P28907 43-300); assay: SPR
T1 construct: eluted as a monomer; also called hCD38; huCD38

[2] = target: T2, Human ICAM1 ECD-Avi (human, UniProt P05362 28-480); assay: SPR
T2 construct: eluted as a monomer; also called hICAM1; recombinant ICAM1

[3] = target: T3, CD38 on the surface of tumor cells (human, UniProt P28907 1-300); assay: cell-based or functional assay
[4] = target: T3, CD38 on the surface of tumor cells; assay: cell-based or functional assay; remark: listed apart in the source
[5] = target: T1, Avi-human CD38 ECD; assay: ELISA on human CD38 ECD; class A = EC50 0.02 nM - 0.1 nM (table legend)
[6] = target: T1, Avi-human CD38 ECD; assay: ELISA on human CD38 ECD; class B = EC50 0.1 nM - 0.5 nM (table legend)
[7] = target: T1, Avi-human CD38 ECD; assay: ELISA on human CD38 ECD; class C = EC50 >0.5 nM (table legend)
[8] = target: ICAM1 on the surface of tumor cells (human, UniProt P05362 28-532); assay: cell-based or functional assay

B3: h18E4-19 (antibody, V domains shown)
VH: EVQLLESGGGLVQPGGSLRLSCAASGFSFNNYWIIWIRQAPGKGLEWVAAIYSPSGDIKYYADWAKGRFTVSKDNSKNTVYLQMNSLRAEDTAVYYCARELSGSSYEGYFESWGQGTLVTV
VL: DIQLTQSPSTLSASVGDRVTITCRSSQSVYGHNWLAWYQQKPGKAPKLLMYRASNLASGVPSRFSGSGSGTEFTLTISSVQPDDFATYYCQGYYSGGSYAFGGGTKVEIK
notes: also called hu18E4-19; humanized h18E4-19 antibody
ADCC on Daudi cells, EC50 [3]: 0.05 to 0.1 pM
ADCC EC50 on Daudi cells; antibody made in CHO [4]: 12.7 pM
ADCC EC50 on Daudi cells; antibody made in CHO FUT8 -/- (afucosylated) [4]: 0.4 pM
ADCC EC50 on HuNS1 cells; antibody made in CHO [4]: 80 pM
ADCC EC50 on HuNS1 cells; antibody made in CHO FUT8 -/- (afucosylated) [4]: 80 pM
ADCC EC50 on Raji cells; antibody made in CHO [4]: 14 pM
ADCC EC50 on Raji cells; antibody made in CHO FUT8 -/- (afucosylated) [4]: 8 pM
EC50 [5]: 20 to 100 pM

B4: h18E4-13 (antibody, V domains shown)
VH: EVQLLESGGGLVQPGGSLRLSCAASGFSFNNYWICWIRQAPGKGLEWVACIYSPSGDIKYYADWAKGRFTVSKDNSKNTVYLQMNSLRAEDTAVYYCARELSGSSYEGYFESWGQGTLVTVSS
VL: B3 VL
binding result [1]: binds

B6: h18E4-19 HC S99A (antibody, name in Kabat numbering, V domains shown)
VH: B3 VH with S104A
VL: B3 VL
notes: Alanine scan variant of h18E4-19; Kabat numbers, not linear positions of the entry
EC50 [5]: 20 to 100 pM

B7: h18E4-19 HC G100cA (antibody, name in Kabat numbering, V domains shown)
VH: B3 VH with G108A
VL: B3 VL
notes: as for B6
EC50 [6]: 100 to 500 pM

B10: h18E4-19 HC S97A (antibody, name in Kabat numbering, V domains shown)
VH: B3 VH with S102A
VL: B3 VL
notes: as for B6
EC50 [5]: 20 to 100 pM

B12: h18E4-19 HC E100bA (antibody, name in Kabat numbering, V domains shown)
VH: B3 VH with E107A
VL: B3 VL
notes: as for B6
EC50 [7]: > 500 pM

B13: h18E4-19 HC S100A (antibody, name in Kabat numbering, V domains shown)
VH: B3 VH with S105A
VL: B3 VL
notes: as for B6
EC50 [5]: 20 to 100 pM

B14: h18E4-19 HC E101A (antibody, name in Kabat numbering, V domains shown)
VH: B3 VH with E111A
VL: B3 VL
notes: as for B6
EC50 [5]: 20 to 100 pM

B16: h18E4-19 HC S102A (antibody, name in Kabat numbering, V domains shown)
VH: B3 VH with S112A
VL: B3 VL
notes: as for B6
EC50 [5]: 20 to 100 pM

B17: h18E4-19 HC E95A (antibody, name in Kabat numbering, V domains shown)
VH: B3 VH with E100A
VL: B3 VL
notes: as for B6
EC50 [7]: > 500 pM

B19: h18E4-19 HC L96A (antibody, name in Kabat numbering, V domains shown)
VH: B3 VH with L101A
VL: B3 VL
notes: as for B6
EC50 [5]: 20 to 100 pM

B20: h18E4-19 HC F100eA (antibody, name in Kabat numbering, V domains shown)
VH: B3 VH with F110A
VL: B3 VL
notes: as for B6
EC50 [5]: 20 to 100 pM

B23: h18E4-19 HC G98A (antibody, V domains shown)
VH: B4 VH with C35I, C50A, G103A
VL: B3 VL
notes: as for B6
EC50 [5]: 20 to 100 pM

B27: h11F2-6 (antibody, V domains shown)
VH: EVQVLESGGGLVQPGGSLRLSCAVSGFSLSSHAMGWVRQAPGKGLEWIGIIGSSDRTYYASWAKGRFTISKDNSKNTVYLQINSPRAEDTAVYYCVRDPYDSYDEGYRLWGQGTLVTVSS
VL: DIQMTQSPSTLSASVGDRVTITCQASQSIYRYLSWYQQKPGKAPKFLIYDASKLASGVPSRFSGSGSGTEFTLTISSVQPDDFATYYCQQAYSSGSIDNAFGGGTKVEIK
ADCC EC50 on Daudi cells; antibody made in CHO FUT8 -/- (afucosylated) [8]: 8 pM
ADCC EC50 on HuNS1 cells; antibody made in CHO FUT8 -/- (afucosylated) [8]: 40 pM
ADCC EC50 on NCI-H2291 cells; antibody made in CHO [8]: 329 pM
ADCC EC50 on NCI-H2291 cells; antibody made in CHO FUT8 -/- (afucosylated) [8]: 19 pM
ADCC EC50 on NCI-H2342 cells; antibody made in CHO [8]: 690 pM
ADCC EC50 on NCI-H2342 cells; antibody made in CHO FUT8 -/- (afucosylated) [8]: 70 pM
ADCC EC50 on Raji cells; antibody made in CHO FUT8 -/- (afucosylated) [8]: 38 pM

Further lines, results first:

Kd [1]: 2000 to 5000 pM
Kd [2]: 100 to 150 pM
B1: αCD38(scFv) x αICAM1 (bispecific antibody, human IgG1, kappa)
heavy: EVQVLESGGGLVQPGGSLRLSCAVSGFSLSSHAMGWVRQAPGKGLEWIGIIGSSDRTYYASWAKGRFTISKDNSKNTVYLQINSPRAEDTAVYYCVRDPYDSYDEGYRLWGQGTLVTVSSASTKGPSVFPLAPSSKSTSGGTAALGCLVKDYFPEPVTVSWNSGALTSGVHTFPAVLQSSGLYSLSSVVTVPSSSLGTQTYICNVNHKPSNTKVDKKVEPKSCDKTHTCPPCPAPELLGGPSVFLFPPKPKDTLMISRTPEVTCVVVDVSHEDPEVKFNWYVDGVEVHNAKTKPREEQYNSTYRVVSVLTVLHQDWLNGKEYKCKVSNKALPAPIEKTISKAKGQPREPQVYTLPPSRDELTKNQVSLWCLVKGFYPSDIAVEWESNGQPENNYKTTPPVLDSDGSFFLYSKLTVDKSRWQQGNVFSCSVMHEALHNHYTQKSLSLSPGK
light: DIQMTQSPSTLSASVGDRVTITCQASQSIYRYLSWYQQKPGKAPKFLIYDASKLASGVPSRFSGSGSGTEFTLTISSVQPDDFATYYCQQAYSSGSIDNAFGGGTKVEIKRTVAAPSVFIFPPSDEQLKSGTASVVCLLNNFYPREAKVQWKVDNALQSGNSQESVTEQDSKDSTYSLSSTLTLSKADYEKHKVYACEVTHQGLSSPVTKSFNRGEC
scFv: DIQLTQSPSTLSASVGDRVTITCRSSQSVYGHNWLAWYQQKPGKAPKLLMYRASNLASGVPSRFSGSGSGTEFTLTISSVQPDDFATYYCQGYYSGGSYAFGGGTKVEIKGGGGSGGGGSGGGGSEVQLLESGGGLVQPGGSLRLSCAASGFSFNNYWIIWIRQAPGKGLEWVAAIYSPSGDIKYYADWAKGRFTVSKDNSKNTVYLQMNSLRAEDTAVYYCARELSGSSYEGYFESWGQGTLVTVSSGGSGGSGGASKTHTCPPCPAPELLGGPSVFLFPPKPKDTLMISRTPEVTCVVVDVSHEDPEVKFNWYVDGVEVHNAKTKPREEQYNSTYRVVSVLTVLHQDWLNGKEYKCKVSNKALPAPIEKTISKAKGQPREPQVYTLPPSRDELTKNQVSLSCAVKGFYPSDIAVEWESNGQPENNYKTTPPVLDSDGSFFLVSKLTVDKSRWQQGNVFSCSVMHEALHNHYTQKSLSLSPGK
notes: h11F2-6 Fab arm on Fc-knob, h18E4-19 scFv on Fc-hole; IgG1 Fc; also called three chain bispecific antibody; scFv format bispecific antibody

Kd [1]: 2000 to 5000 pM
Kd [2]: 100 to 150 pM
B2: αCD38(TCR) x αICAM1 (bispecific antibody, human IgG1, kappa)
heavy 1: EVQLLESGGGLVQPGGSLRLSCAASGFSFNNYWIIWIRQAPGKGLEWVAAIYSPSGDIKYYADWAKGRFTVSKDNSKNTVYLQMNSLRAEDTAVYYCARELSGSSYEGYFESWGQGTLVTVLEDLKNVFPPEVAVFEPSEAEISHTQKATLVCLATGFYPDHVELSWWVNGKEVHSGVCTDPQPLKEQPALQDSRYALSSRLRVSATFWQNPRNHFRCQVQFYGLSENDEWTQDRAKPVTQIVSAEAWGRASDKTHTCPPCPAPELLGGPSVFLFPPKPKDTLMISRTPEVTCVVVDVSHEDPEVKFNWYVDGVEVHNAKTKPREEQYNSTYRVVSVLTVLHQDWLNGKEYKCKVSNKALPAPIEKTISKAKGQPREPQVCTLPPSREEMTKNQVSLSCAVKGFYPSDIAVEWESNGQPENNYKTTPPVLDSDGSFFLVSKLTVDKSRWQQGNVFSCSVMHEALHNHYTQKSLSLSPG
light 1: DIQLTQSPSTLSASVGDRVTITCRSSQSVYGHNWLAWYQQKPGKAPKLLMYRASNLASGVPSRFSGSGSGTEFTLTISSVQPDDFATYYCQGYYSGGSYAFGGGTKVEIKPDIQNPDPAVYQLRDSKSSDKSVCLFTDFDSQTQVSQSKDSDVYITDKCVLDMRSMDFKSNSAVAWSQKSDFACANAFQNSIIPEDTFFPSPESS
heavy 2: not shown
light 2: B1 light
notes: also called TCR format bispecific antibody; TCR-chimera bispecific antibody

EC50 [6]: 100 to 500 pM
B5: h18E4-19 LC Y96A (antibody, V domains shown)
VH: B3 VH
VL: B3 VL with Y99A
notes: as for B6

EC50 [6]: 100 to 500 pM
B8: h18E4-19 LC S93A (antibody, V domains shown)
VH: B3 VH
VL: B3 VL with S95A
notes: as for B6

EC50 [5]: 20 to 100 pM
B9: h18E4-19 LC G95A (antibody, V domains shown)
VH: B3 VH
VL: B3 VL with G97A
notes: as for B6

EC50 [7]: > 500 pM
B11: h18E4-19 LC G94A (antibody, V domains shown)
VH: B3 VH
VL: B3 VL with G96A
notes: as for B6

EC50 [5]: 20 to 100 pM
B15: h18E4-19 LC Y92A (antibody, V domains shown)
VH: B3 VH
VL: B3 VL with Y94A
notes: as for B6

EC50 [7]: > 500 pM
B18: h18E4-19 LC Y91A (antibody, V domains shown)
VH: B3 VH
VL: B3 VL with Y93A
notes: as for B6

EC50 [5]: 20 to 100 pM
B21: h18E4-19 LC Q89A (antibody, V domains shown)
VH: B3 VH
VL: B3 VL with Q91A
notes: as for B6

EC50 [7]: > 500 pM
B22: h18E4-19 HC Y100dA (antibody, name in Kabat numbering, V domains shown)
VH: B3 VH with Y109A
VL: B3 VL
notes: as for B6

EC50 [6]: 100 to 500 pM
B24: h18E4-19 LC G90A (antibody, V domains shown)
VH: B3 VH
VL: B3 VL with G92A
notes: as for B6

EC50 [5]: 20 to 100 pM
B25: h18E4-19 LC S95aA (antibody, V domains shown)
VH: B3 VH
VL: B3 VL with S98A
notes: as for B6

EC50 [5]: 20 to 100 pM
B26: h18E4-19 HC Y100aA (antibody, name in Kabat numbering, V domains shown)
VH: B3 VH with Y106A
VL: B3 VL
notes: as for B6
